Measured values published in article PMC8260656.

Molecular target: EZH2 recombinant protein His-tagged (Epigentek, E24031-1) (human) (UniProt Q15910)
Assay: MST; labeled His-tagged EZH2 at 5 nM fixed; ERG from 0.4uM to 2.44E-05uM; incubated at room temperature for 5 min; Monolith NT.115, Premium capillaries, 30% LED excitation, high MST power

B1: ERG recombinant protein (Origene, TP308093) (natural protein)
chain: MASTIKEALSVVSEDQSLFECAYGTPHLAKTEMTASSSSDYGQTSKMSPRVPQQDWLSQPPARVTIKMECNPSQVNGSRNSPDECSVAKGGKMVGSPDTVGMNYGSYMEEKHMPPPNMTTNERRVIVPADPTLWSTDHVRQWLEWAVKEYGLPDVNILLFQNIDGKELCKMTKDDFQRLTPSYNADILLSHLHYLRETPLPHLTSDDVDKALQNSPRLMHARNTGGAAFIFPNTSVYPEATQRITTRPDLPYEPPRRSAWTGHGHPTPQSKAAQPSPSTVPKTEDQRPQLDPYQILGPTSSRLANPGSGQIQLWQFLLELLSDSSNSSCITWEGTNGEFKMTDPDEVARRWGERKSKPNMNYDKLSRALRYYYDKNIMTKVHGKRYAYKFDFHGIAQALQPHPPESSLYKYPSDLPYMGSYHAHPQKMNFVAPHPPALPVTSSSFFAAPNPYWNSPTGGIYPNTRLPTSHMPSHLGTYY
Q: How did the Kd turn out when B1 was run?
A: Its Kd is 290 nM.
